Assay in all cases: cell_activity
Series [1] concerns T1, BEC67 (Artificial (engineered chimeric Cms1-like CRISPR nuclease)).
T1 sequence: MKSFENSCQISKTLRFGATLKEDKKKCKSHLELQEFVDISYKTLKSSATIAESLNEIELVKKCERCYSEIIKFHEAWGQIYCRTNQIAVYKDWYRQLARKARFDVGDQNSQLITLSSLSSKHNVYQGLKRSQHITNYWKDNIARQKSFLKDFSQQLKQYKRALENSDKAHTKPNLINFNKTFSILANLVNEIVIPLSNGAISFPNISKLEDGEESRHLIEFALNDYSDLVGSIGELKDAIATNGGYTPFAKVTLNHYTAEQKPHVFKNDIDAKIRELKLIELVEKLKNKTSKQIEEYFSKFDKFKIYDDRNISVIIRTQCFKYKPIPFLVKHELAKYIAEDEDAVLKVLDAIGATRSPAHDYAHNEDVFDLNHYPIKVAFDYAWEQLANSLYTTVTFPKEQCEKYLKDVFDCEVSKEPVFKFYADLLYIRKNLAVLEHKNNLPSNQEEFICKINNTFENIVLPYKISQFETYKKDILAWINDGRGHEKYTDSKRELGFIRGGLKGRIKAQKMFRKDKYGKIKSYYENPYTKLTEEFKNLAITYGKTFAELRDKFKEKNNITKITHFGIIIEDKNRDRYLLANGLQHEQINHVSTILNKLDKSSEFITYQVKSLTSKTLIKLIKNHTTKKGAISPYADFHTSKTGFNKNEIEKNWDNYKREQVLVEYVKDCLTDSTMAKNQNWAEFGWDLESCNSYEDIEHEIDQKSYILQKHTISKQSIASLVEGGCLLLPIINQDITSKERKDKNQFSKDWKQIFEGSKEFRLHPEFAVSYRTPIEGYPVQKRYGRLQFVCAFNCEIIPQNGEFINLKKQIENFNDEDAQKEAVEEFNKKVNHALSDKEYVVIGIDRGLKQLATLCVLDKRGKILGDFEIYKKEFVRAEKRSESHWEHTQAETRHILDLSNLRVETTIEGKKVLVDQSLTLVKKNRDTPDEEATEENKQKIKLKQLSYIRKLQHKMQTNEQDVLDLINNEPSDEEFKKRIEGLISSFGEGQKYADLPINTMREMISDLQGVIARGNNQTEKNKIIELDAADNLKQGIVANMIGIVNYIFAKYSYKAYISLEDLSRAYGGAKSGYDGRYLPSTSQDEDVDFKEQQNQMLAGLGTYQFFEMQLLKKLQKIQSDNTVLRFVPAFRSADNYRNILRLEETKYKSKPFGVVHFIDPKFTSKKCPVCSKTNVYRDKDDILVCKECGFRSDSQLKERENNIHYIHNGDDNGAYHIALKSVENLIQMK
The following applies: no-spacer negative control; 30 C.

Series [2] relates to T2, BEC10 (Artificial (engineered chimeric Cms1-like CRISPR nuclease)).
T2 sequence: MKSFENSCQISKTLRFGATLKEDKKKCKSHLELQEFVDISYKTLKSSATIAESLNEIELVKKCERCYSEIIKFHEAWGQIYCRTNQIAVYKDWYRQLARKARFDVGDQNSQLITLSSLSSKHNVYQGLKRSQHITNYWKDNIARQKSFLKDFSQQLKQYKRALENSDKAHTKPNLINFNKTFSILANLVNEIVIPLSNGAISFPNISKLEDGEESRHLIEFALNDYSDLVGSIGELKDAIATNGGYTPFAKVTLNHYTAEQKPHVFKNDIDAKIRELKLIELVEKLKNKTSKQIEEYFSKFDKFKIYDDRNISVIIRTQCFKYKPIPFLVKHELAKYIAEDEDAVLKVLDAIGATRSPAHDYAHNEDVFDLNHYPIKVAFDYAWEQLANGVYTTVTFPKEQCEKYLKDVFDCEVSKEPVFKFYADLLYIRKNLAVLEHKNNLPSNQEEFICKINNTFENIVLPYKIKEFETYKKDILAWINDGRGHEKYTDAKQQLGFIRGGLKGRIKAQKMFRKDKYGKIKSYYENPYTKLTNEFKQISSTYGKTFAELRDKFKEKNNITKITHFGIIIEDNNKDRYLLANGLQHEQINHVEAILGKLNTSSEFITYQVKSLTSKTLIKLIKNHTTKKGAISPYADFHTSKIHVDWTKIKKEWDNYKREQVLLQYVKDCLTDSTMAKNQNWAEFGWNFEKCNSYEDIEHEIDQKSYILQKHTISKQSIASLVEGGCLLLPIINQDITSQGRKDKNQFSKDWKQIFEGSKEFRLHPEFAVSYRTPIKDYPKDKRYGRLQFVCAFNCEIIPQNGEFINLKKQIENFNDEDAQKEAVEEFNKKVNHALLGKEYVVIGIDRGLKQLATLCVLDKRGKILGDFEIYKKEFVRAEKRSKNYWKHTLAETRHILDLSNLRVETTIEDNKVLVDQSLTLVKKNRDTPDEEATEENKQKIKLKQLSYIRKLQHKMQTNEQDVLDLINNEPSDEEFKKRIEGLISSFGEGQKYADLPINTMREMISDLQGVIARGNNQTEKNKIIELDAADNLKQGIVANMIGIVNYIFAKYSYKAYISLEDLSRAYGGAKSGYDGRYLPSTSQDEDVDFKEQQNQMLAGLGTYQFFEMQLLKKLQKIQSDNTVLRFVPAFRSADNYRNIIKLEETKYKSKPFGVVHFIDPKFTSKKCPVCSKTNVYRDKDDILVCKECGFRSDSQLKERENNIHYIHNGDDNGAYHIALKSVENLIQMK
Conditions: no-spacer negative control; 30 C.

Series [3] relates to T3, BEC85 (Artificial (engineered chimeric Cms1-like CRISPR nuclease)).
T3 sequence: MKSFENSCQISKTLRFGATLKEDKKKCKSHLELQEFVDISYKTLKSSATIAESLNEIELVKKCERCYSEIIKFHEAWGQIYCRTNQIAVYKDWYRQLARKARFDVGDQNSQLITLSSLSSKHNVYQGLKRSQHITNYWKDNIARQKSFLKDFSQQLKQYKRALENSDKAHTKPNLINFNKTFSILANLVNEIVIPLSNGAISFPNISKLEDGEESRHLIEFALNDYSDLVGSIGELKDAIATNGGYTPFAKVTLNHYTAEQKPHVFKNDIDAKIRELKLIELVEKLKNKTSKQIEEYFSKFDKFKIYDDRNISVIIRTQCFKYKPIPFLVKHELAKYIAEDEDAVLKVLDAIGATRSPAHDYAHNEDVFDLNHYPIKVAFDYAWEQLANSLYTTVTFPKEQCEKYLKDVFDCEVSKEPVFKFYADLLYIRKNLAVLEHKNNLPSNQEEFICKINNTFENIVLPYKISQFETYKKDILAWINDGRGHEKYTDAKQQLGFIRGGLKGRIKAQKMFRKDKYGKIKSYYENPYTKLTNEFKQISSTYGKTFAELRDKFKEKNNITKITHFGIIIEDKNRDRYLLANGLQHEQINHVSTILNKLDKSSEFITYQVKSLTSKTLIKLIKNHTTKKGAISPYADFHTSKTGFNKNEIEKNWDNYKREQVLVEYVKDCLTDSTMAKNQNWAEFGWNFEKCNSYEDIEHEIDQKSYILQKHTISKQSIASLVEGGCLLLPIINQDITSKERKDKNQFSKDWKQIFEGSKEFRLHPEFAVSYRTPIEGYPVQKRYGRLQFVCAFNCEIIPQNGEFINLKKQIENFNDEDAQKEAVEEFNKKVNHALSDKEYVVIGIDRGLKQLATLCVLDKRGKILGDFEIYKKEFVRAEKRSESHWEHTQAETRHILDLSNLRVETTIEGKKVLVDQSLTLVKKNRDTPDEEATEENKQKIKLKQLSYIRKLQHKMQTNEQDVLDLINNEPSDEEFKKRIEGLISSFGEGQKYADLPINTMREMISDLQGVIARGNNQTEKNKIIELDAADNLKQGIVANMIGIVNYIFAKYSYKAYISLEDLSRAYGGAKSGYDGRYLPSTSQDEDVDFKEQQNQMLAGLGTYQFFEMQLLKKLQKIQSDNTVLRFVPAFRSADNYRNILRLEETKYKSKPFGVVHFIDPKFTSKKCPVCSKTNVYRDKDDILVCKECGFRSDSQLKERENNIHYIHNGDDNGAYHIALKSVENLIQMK
Conditions: no-spacer negative control; 30 C.

In a further series the test system is SuCms1. Conditions: PAM TTTA.
Another series relates to SeqID63 (WO2019/030695). The following applies: PAM TTTA.

Activity (% editing efficiency) and activity (% colony reduction) data for three substances are collected here from patent US20230287372.

Take “gRNA cassette without spacer ; Ade2 target”: the activity (% editing efficiency) in series [1], in series [2] and in series [3] was 0.2 throughout.
As for “Ade2 gRNA for Cms1 comparators ; Ade2 target”, the activity (% editing efficiency) with SuCms1 (S. cerevisiae 21 C, near negative control) worked out at 0.3; in the series with SuCms1 (S. cerevisiae 30 C, 3% fully edited), 5; in the series with SeqID63 (WO2019/030695) (S. cerevisiae 21 C) it was 0.2; in the series on SeqID63 (WO2019/030695) (S. cerevisiae 30 C, comparable to negative control) it was 0.2.
As for “rpoB gRNA for Cms1 comparators ; rpoB target”, the activity (% colony reduction) with SuCms1 (E. coli depletion assay 37 C) is 72; with SeqID63 (WO2019/030695) (E. coli depletion assay 37 C) it was 0.
